{"source": "patent JP2013172663A", "about": "(dated 2013)", "binders": {"B1": {"name": "野生型scFv抗体フラグメント(配列番号:62) (scFv)", "scFv": "DVVLTQSPLTLSVTIGQPASISCKSSQSLLDSDGKTYLNWLLQRPGQSPKRLIYLVSKLDSGVPDRFTGSGSGTDFTLKISRVEAEDLGVYYCWQGTHFPLTFGAGTKLEIKRGGGGSGGGGSGGGGSQLQLQQSGAELVRSGASVKLSCTASGFNIKDYYMNWVKQRPEQGLEWIGWIDPANGDTAYAPRFQVKATMTADKSSNTAYLQLSSLTSEDTAVYYCNADLPMDQWGQGTSVTVSSAAALEHHHHHH", "notes": "also called 野生scFv抗体フラグメント; 野生型scFv抗体フラグメント"}}, "biological_target": "T1, ヒト心筋由来トロポニンI (human, UniProt P19429 2-210)", "T1 construct": "It is not the protein on the chip; also called human cardiac troponin I; cTnI", "T1 sequence (P19429 2-210 limits assumed)": "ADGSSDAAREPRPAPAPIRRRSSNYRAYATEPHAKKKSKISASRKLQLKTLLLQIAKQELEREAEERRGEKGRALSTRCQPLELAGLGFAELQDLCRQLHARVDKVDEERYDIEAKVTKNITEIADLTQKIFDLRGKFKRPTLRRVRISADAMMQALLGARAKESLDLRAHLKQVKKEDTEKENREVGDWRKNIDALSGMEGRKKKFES", "experiment": "SPR (Biacore T100), troponin I on a CM5 chip, scFv as analyte", "data": [{"binder": "B1", "values": [{"measurement": "binding result", "value": "binds"}]}]}
